Experimental data published in publication PMC4462140.

Target: T1, myristoylated zGCAP2 (zebrafish), Q90WX3
T1 chain: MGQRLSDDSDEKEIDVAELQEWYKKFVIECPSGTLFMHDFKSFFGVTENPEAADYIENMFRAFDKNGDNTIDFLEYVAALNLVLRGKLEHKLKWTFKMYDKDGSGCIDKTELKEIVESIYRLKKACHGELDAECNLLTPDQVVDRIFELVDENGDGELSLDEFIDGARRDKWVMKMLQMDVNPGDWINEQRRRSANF
Assay: SEC; analytical size exclusion chromatography of purified myristoylated zGCAPs on a Primaide HPLC system, as described previously (refs 12, 18, 30); Ca2+ dependence tested; data not shown
Conditions: remark: other sources report otherwise

percent monomeric form: 80%
stoichiometry N: 2
B1: myristoylated zGCAP2, Q90WX3 1-197 (natural protein)
chain: T1 chain
modifications: here or on the partner: N-terminal myristoyl group; N-terminal myristoyl group
